T1: human PACAP38 (human, not fully specified; C-terminal lysine is amidated)
T1 peptide: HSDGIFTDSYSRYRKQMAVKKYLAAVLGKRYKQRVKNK

T2: human PACAP27 (human, C-terminal leucine is amidated)
T2 peptide: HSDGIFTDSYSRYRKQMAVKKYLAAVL

T3: PAC1-R on PC-12 cells (UniProt P32215 20-523)
T3 construct: whole, on cells; Endogenous receptor of PC-12 cells; also called PAC1 receptor; PAC1-R-expressing PC-12 cells
T3 sequence (looked up): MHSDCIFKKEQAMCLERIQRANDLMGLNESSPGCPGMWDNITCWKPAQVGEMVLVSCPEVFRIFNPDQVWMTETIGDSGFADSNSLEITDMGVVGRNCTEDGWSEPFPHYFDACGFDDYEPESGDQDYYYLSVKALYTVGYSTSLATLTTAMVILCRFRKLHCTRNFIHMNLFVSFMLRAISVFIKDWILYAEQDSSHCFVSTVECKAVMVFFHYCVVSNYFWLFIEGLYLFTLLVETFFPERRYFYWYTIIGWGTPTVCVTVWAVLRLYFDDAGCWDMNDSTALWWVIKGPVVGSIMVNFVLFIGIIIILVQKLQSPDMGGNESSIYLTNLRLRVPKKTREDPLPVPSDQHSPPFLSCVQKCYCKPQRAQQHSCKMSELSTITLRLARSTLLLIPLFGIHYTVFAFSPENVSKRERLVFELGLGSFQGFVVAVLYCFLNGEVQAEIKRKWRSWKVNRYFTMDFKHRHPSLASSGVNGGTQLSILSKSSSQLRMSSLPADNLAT


Assays:
human PACAP38 [1] = target: T1, human PACAP38; experiment: cell-based or functional assay
human PACAP27 [2] = target: T2, human PACAP27; experiment: cell-based or functional assay
human PACAP38 [3] = target: T1, human PACAP38; experiment: cell-based or functional assay
human PACAP38 [4] = target: T1, human PACAP38; experiment: cell-based or functional assay
PAC1-R on PC-12 cells = target: T3, PAC1-R on PC-12 cells; experiment: DELFIA TRF cell-surface binding assay: antibody pre-incubated with PACAP38 (200 nM stock mixed 1:1), added to PAC1-R-expressing PC-12 cells, Eu anti-human IgG detection
Method: Cells were initially seeded at 1×10⁵ cells/well in a solution of complete RPMI (“cRPMI”: RPMI medium supplemented with 10% sterile heat-inactivated FBS and 1% sterile antibiotic/antimycotic)+10% FBS, and the plates were allowed to incubate overnight at 37° C. On the day of the binding assay, antibodies at an initial concentration of 15 μg/ml were diluted at a 1:3 ratio in DELFIA® binding buffer (50 mM Tris, 150 mM NaCl, 0.1% azide, 2% horse serum) (Perkin-Elmer, Waltham, Mass.) to a total volume of 60 μL in a separate 96 well round bottom plate. PACAP38 was prepared for the binding assay by diluting it in DELFIA® binding buffer to a concentration of 200 nM, and then 60 μl of the diluted PACAP38 was added to each of the antibody-containing wells to form antibody:antigen complexes. Following addition of PACAP38, the antibody:antigen complexes were incubated at room temperature on a shaker for 1 hour. […]
DELFIA® Europium labeled anti-human IgG detection reagent (Cat #1244-330, Perkin-Elmer, Waltham, Mass.) was diluted to a concentration of 300 ng/ml in DELFIA® Binding Buffer. […] The plates were then read (TRF, excitation 330 nm, emission 620 nm) on a SPECTRAMAX® (Molecular Devices, Sunnyvale, Calif.) plate reader.

human PACAP27 [5] = target: T2, human PACAP27; experiment: SPR (ProteOn XPR36), antibody amine-coupled to chip, PACAP27 as analyte 1.23-1000 nM
human PACAP38 [6] = target: T1, human PACAP38; experiment: SPR (ProteOn XPR36), antibody amine-coupled to chip, PACAP38 as analyte 1.23-100 nM, 1:1 Langmuir fit
Method: Binding affinities of monoclonal antibodies for human PACAP were estimated using SPR on the PROTEON™ XPR36 (Bio-Rad, Hercules, Calif.). Antibody was immobilized to the surface of general amine coupling (“GLC” or “GLM”) Chips (Bio-Rad, Hercules, Calif.). A dilution series of human PACAP38 (SEQ ID NO: 1241) prepared in 1×PBST Buffer (4.3 mM Na Phosphate, 1.4 mM K Phosphate, 135 mM NaCl, 2.7 mM KCl 0.05% Polysorbate-20) purchased from Teknova (Cat# P1192, Teknova, Hollister, Calif.) and supplemented with 0.25 M arginine (from J. T. BAKER®), 0.2 mg/ml BSA (Jackson Immuno Research Labs, West Grove, Pa.), and 0.005% sodium azide (VWR International, Radnor, Pa.) with the pH adjusted to 7 was used to query the antibodies. Antigen (ranging from 1.23 nM to 100 nM) was typically run sequentially with association times of 2-4 minutes and dissociation times of 3-120 minutes grouped with the PROTEON™ Manager Software (v3.1.0.6 (Bio-Rad, Hercules, Calif.)) and fitted using a 1:1 Langmuir binding model. Surfaces were regenerated between analyte queries using 0.85% Phosphoric Acid.

Row | Inhibition of 0.1 nM PACAP38-induced PAC1-R mediated cAMP increase IC50 (PC-12 cells, HTRF) (human PACAP38 [1]) [nM] | Inhibition of 0.1 nM PACAP27-induced PAC1-R mediated cAMP increase IC50 (PC-12 cells, HTRF) (human PACAP27 [2]) [nM] | Inhibition of 5 nM PACAP38-induced human VPAC1-R mediated cAMP increase IC50 (CHO-K1 cells, HTRF) (human PACAP38 [3]) [nM] | Inhibition of 1 nM PACAP38-induced human VPAC2-R mediated cAMP increase IC50 (CHO-K1 cells, HTRF) (human PACAP38 [4]) [nM] | Kd (human PACAP27 [5]) [nM] | koff (human PACAP27 [5]) [s⁻¹] | Kd (human PACAP38 [6]) [nM] | koff (human PACAP38 [6]) [s⁻¹] | Binder | binding result (PAC1-R on PC-12 cells)
1 | 0.18 | 0.227 | 0.649 | 0.189 |  |  |  |  | Ab10 (antibody, human IgG1, kappa, N297A, V domains shown, also called anti-PACAP antibody Ab10) VH: QSVEESGGRLVTPGTPLTLTCTVSGIDLNSYYMTWVRQAPGKGLEWIGFIDAGGDAYYASWAKGRFTISKTSTTVDLKITSPTTEDTATYFCARDLDLWGQGTLVTVSS VL: AAVLTQTPSPVSAAVGGTVTINCQSSESVYGNYLAWFQQKPGQPPKLLIYEASKLESGVPSRFSGSGSGTQFTLTISDLQCDDAATYYCAGGDISEGVAFGGGTEVVVKR | no binding (tested: about 5000 nM (last point as drawn))
2 | 0.239 | 0.14 | 2.85 | 5.21 |  |  |  |  | Ab21 (antibody, human IgG1, kappa, N297A, V domains shown) VH: QSVEESGGRLVTPGTPLTLTCTVSGIDLSSYYMTWVRQAPGKGLEWVGFIDAGGSAYYATWAKGRFTISKASTTVDLKITSPTTEDTATYFCARDLDLWGPGTLVTVSS VL: AAVLTQTPSPVSAAVGGTVSISCKSSESVYGDYLAWFQQKPGQPPKQLIYDASTLASGVPSRFKGSGSGTQFTLTISGVQCDDAATYYCAGGYVSAGVAFGGGTEVVVKR | 
3 | 0.368 | 0.188 | 3.89 | 14.6 |  |  |  |  | Ab20 (antibody, human IgG1, kappa, N297A, V domains shown) VH: QSVEESGGRLVTPGTPLTLTCTVSGIDLSSYYMSWVRQAPGKGLEWIGFIDTDGSAYYATWAKGRFTISKTSTTVDLKITSPTTEDTATYFCARDLDLWGPGTLVTVSS VL: AAVLTQTPSPVSAAVGGTVSISCQSSESVYSNYLAWFQQKPGQPPKFLIYEASKLASGVPSRFKGSGSGTQFTLTISDVQCDDAGTYYCAGGYSSEGVAFGGGTEVVVKR | 
4 | 0.246 | 0.204 | 2.1 | 1.51 | 0.016 | 1e-05 | 0.021 | 1e-05 | Ab21.H (antibody, V domains shown) VH: EVQLVESGGGLVQPGGSLRLSCAASGIDLSSYYMTWVRQAPGKGLEWIGFIDAGGSAYYATWAKGRFTISRDNSKNTVYLQMNSLRAEDTAVYFCARDLDLWGQGTLVTVSS VL: DAQLTQSPSTLSASVGDRVTITCKSSESVYGDYLAWFQQKPGKAPKQLIYDASTLASGVPSRFSGSGSGTEFTLTISSLQPDDFATYYCAGGYVSAGVAFGGGTKVEIKR | 
